# Measured values from patent US11912777 (NANJING LEADS BIOLABS, dated 2024).
# T1: human TNFR2, mouse Fc-tag (human)
# T1 construct: also called hTNFR2-mFc; huTNFR2-mFc
# T1 chain: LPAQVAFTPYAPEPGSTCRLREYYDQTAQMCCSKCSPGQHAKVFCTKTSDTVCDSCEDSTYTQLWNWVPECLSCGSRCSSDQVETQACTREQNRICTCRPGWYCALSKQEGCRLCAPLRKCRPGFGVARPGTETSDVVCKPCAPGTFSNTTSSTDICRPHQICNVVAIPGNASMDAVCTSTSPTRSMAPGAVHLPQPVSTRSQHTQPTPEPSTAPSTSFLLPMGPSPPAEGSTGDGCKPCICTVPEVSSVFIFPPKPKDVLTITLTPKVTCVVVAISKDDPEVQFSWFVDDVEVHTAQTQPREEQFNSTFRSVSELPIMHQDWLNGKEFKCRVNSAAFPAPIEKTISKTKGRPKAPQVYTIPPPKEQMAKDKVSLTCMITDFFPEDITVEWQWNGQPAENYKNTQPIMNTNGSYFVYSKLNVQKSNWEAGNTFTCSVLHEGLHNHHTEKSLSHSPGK
# T2: human TNFR2 expressed on activated PBMCs (human, UniProt P20333 23-461)
# T2 construct: whole, on cells; Native receptor on primary cells
# T2 sequence (looked up): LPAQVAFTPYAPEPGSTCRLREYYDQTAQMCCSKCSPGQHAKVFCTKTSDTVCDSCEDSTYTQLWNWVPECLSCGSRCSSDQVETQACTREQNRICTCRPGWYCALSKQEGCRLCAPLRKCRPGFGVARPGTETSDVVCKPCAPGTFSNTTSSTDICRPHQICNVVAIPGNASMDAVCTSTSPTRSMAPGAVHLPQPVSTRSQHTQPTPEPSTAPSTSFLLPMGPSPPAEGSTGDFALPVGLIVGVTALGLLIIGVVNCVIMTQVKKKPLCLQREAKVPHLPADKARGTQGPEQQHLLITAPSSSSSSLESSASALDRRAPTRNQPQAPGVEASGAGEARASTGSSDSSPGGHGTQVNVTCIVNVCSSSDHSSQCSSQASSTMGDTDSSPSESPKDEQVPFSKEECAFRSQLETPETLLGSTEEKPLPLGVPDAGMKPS
# B1: negative control IgG (antibody, V domains shown)
# VH: QVQLVESGGGAVQPGRSLRLSCAASGFTFSSYGMHWVRQAPGKGLEWVAVILYDGSDKFYADSVKGRFTISRDNSKNTLYLQMNSLRAEDTAVYYCAKVAVAGTHFDYWGQGTLVTVSS
# VL: DIQMTQSPSSLSASVGDRVTITCRASQGIRNDLGWYQQKPGKAPKLLIYAASSLQSGVPSRFSGSGSGTDFTLTISSLQPEDFATYYCQQLNSYPPTFGGGTKVEIKR
# notes: also called IgG Control; IgG (Negative Control)
# Key:
# [1] = biological target: T3, Human TNFR2, human Fc tag protein (human); experiment: ELISA on coated huTNFR2-huFc, top panel (with 32A1D5); fit value of a flat control curve; unit from the axis
# T3 construct: also called huTNFR2-huFc; HuTNFR2-huFc
# [2] = biological target: T1, human TNFR2, mouse Fc-tag; experiment: ELISA on coated human TNFR2-mFc, left panel; fit value of a flat control curve; unit from the axis [a]
# [3] = biological target: T1, human TNFR2, mouse Fc-tag; experiment: ELISA on coated human TNFR2-mFc, left panel; fit value of a flat control curve; unit from the axis [b]
# [4] = biological target: T4, Cynomolgus TNFR2, human Fc tag protein (cynomolgus); experiment: ELISA on coated cyno-TNFR2-huFc; bottom panel
# T4 construct: also called cyno-TNFR2-huFc
# [5] = biological target: T2, human TNFR2 expressed on activated PBMCs; experiment: flow cytometry on activated human PBMCs
# [6] = biological target: T3, Human TNFR2, human Fc tag protein; experiment: ELISA on coated huTNFR2-huFc, middle panel (with 43B7A4); fit value of a flat control curve; unit from the axis
# [7] = biological target: T1, human TNFR2, mouse Fc-tag; experiment: blocking ELISA: hTNFR2-mFc mixed with antibody, binding to coated TNF-alpha his tag; right panel; fit value of a flat control curve; unit from the axis [a]
binder,measurement,setting,value
B1,EC50,[1],~0.102 nM
same,EC50,[2],~0.102 nM
same,EC50,[3],~3.06 nM
same,binding result,[4],no binding (tested: about 1 nM)
same,binding result,[5],no binding
same,EC50,[6],277 nM
same,IC50,[7],~2.06 nM
